In article PMC2965686:

Columns and labels:
Assay in all cases: FRET or BRET
[1] = biological target: Spo21-YFP (S. cerevisiae) (UniProt Q12411)
[2] = biological target: YFP-Cnm67 (S. cerevisiae) (UniProt P53865)
[3] = biological target: Mpc54-YFP (S. cerevisiae) (UniProt Q08550)
[4] = biological target: YFP-Spo21 (S. cerevisiae) (UniProt Q12411)

Chain of UniProt P53865 (P53865 whole entry): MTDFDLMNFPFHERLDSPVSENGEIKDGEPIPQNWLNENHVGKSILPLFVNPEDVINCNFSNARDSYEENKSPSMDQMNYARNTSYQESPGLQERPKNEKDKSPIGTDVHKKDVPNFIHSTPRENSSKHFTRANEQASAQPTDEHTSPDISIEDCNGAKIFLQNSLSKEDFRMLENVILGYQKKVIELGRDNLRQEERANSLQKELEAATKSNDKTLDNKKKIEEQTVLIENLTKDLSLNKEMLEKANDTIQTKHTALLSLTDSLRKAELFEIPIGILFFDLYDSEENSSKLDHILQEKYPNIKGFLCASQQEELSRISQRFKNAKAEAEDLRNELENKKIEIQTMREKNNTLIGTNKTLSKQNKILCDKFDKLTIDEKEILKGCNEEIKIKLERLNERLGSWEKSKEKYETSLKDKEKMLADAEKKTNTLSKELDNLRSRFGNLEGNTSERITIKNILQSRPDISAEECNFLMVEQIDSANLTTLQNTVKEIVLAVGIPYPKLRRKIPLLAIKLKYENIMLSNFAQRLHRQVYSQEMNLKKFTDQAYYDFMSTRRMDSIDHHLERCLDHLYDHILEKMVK
Chain of UniProt Q08550 (Q08550 whole entry): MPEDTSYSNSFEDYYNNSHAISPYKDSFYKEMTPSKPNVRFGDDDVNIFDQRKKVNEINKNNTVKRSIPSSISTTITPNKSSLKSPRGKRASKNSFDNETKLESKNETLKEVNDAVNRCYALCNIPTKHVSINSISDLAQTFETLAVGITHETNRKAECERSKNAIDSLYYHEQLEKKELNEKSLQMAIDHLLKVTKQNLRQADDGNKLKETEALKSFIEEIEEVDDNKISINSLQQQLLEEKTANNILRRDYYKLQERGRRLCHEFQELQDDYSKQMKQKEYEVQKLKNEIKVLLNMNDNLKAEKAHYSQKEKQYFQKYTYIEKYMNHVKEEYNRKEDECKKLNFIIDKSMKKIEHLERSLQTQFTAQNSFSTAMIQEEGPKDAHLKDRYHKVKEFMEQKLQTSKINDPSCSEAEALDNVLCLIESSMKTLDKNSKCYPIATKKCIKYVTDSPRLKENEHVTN

Substance | FretR [1] | FretR [2] | FretR [3] | FretR [4]
Spo21-CFP (from UniProt Q12411 1-609) (natural protein) | 1.34 | 1.47 | 1.24 | –
CFP-Mpc54 (from UniProt Q08550 1-464) (natural protein) | – | – | – | 1.23
Mpc54-CFP (from UniProt Q08550 1-464) (natural protein) | – | 1.35 | 1.26 | –
